Experiment: In vitro drug permeation studies across caco-2 monolayer on Transwell inserts
Format: in vitro ADME, Human
Conditions: PEGDMA 15% Texas red-BSA, 30% FITC-BSA, 45% DNP-BSA reservoirs of same device; FIG. 6
Method: In vitro drug permeation studies. The drug loaded microdevices were released within 2 min from the wafers using 8 M potassium hydroxide (KOH) solution that was preheated to 40° C. The released microdevices being less dense than water was ultracentrifuged (30 kDa Amicon ultra centrifugal filters) and washed with PBS twice for release and permeation studies. Human colorectal adenocarcinoma epithelial cells (caco-2 ATCC) were grown to confluency (transepithelial electrical resistance plateau at 900-1000Ω) on 50% collagen-ethanol (Type 1, Becton Dickinson, Franklin Lakes, N.J.) treated 24-well Transwell® inserts. The caco-2 cells were maintained in Modified Eagle's Media (MEM) with 20% fetal bovine serum (Invitrogen), 2 mM L-glutamine, 1.5 g/L sodium bicarbonate, 2.5 g/L glucose, 10 mM HEPES buffer, 1.0 mM sodium pyruvate, and 1 mg/mL penicillin/streptomycin for 5 days or more prior to seeding. […] Discrete time (20 min) samples were taken from both the upper and lower chamber of the Transwell® for the different drug loaded systems and observed for fluorescence using a Packard Fluorocount Microplate Fluorometer (Meriden, Conn.).
To measure the drug elution kinetics of the various microdevices, release of the different fluorophore tagged BSAs were monitored, in vitro, from hydrogel laden microdevices. […]

Texas red-BSA: fluorescently labeled bovine serum albumin, model fluorophore-drug
relative release rate at different crosslinking ratio: released faster than FITC-BSA

FITC-BSA: fluorescently labeled bovine serum albumin, model fluorophore-drug
relative release rate at different crosslinking ratio: released faster than DNP-BSA
